Positions count from the first letter of the chain named.

To fix the notation:
B1: 9-K23 (antibody, V domains shown)
VH: QVTLKESGPGMLQPSQTLSLTCSFSGFSLNTYDVGVGWIRQPSGKGLEWLANIWWNDDKYYNSALKSRLTISKDTSNNQVFLKISSVDTADTATYYCTLYSYDGGFAYWGQGTLVTVSA
VL: QIVLTQSPAIMSASLGERVTMTCTASSSVSSSYLHWYQQKPGSSPKLWIYSTSNLASGVPARFSGSGSGTSYSLTISSMEAEDAATYYCHQYHRSPYTFGGGTKLEIK
B2: 8-O17 (antibody, V domains shown)
VH: QVQLKESGPGLVAPSQSLSITCTVSGFSLTNYGVHWVRQPPGKGLEWLVVIWNDGSATYNSALESRLSISKDNSKSQVFLKMNSLQTDDTAMYYCARHESSNPFAYWGQGTLVTVSA
VL: DILLTQSPAILSVSPGERVSFSCRASQSIGTSIHWYQQRTNGSPRLLIKSASESIAGIPSRFSGSGSGTDFTLSINSVESEDIADYYCQQNNRWPYTFGGGTKLEIK
B3: 4-C5 (antibody, V domains shown)
VH: QVQLQQSGAELMKPGASVKISCKATGYTFSNYWIEWVKQRPGHGLEWIGEILPGSGSTNYNENFKGKATFTADTSSNTAYMQLSSLTSEDSAVYYCARRGAYGNFHYWGQGTTLTVSS
VL: EIVLTQSPALMAASPGEKVTITCSVSSSISSSNLHWYQQKSETSPKPWIYGTSNLASGVPVRFSGSGSGTSYSLTISSMEAEDAATYYCQQWRSYPYTFGGGTKLEIK
B4: 10-H2 (antibody, V domains shown)
VH: EVQLVESGGDLVKPGGSLKLSCAASGFTFSDYGMHWVRQGPEKGLEWVAYINSGSSTIYYADTVKGRFTISRDNAKNTLFLQMTSLRSEDTAMYYCARPGDYDNYAMDYWGQGTSVTVSS
VL: DIVMTQSHKFLSTSVGDRVSITCKASQDVSVAVAWYQQKPGQSPKLLIYWAYTRHTGVPDRFTGSGSGTEYTLTISSVQAEDLALYYCQQHYNTPPWTFGGGTKLEIK
B5: 2-H19 (antibody, V domains shown)
VH: EVQLQQSGAELVRSGASVKLSCTASGFNIKDYYMHWVKQRPEQGLEWIGWIDPESGDTEYAPKFQGRATMTADTSSNTAYMQLSSLTSEDTAVYYCYGHDYRVDCWGQGTSVTVSS
VL: DVVMTQTPLSLPVSLGDQASISCRSSQSLVHSNGNTYLHWYLQKPGQSPKLLIYKVSNRFSGVPDRFSGSGSGTDFTLKISRVEAEDLGVYFCSQSTHIPWTFGGGTKLEIK
B6: 4-J22 (antibody, V domains shown)
VH: EVQLQQSGAELVRSGASVKLSCTASGFNIKDYYIHWVKQRPEQGLEWIGWIDPENADTEYAPKFQGKATMTPDTSSNTAYLQLSSLTSEDTAVYYCYAWDYSMDYWGQGTSVTVSS
VL: B5 VL with P12S, T77I, S96N, I99V, W101Y, K108R
B7: 3-M12 (antibody, V domains shown)
VH: DVQLQESGPGLVKPSQSLSLTCSVTGYSITSGYYWNWIRQFPGNKLEWMGYITFDGANNYNPSLKNRISITRDTSKNQFFLKLTSVTTEDTATYYCTRSSYDYDVLDYWGQGTTLTVSS
VL: DIQMTQTTSSLSASLGDRVTISCRASQDISNFLNWYQQRPDGTVKLLIYYTSRLHSGVPSRFSGSGSGTDFSLTVSNLEQEDIATYFCQQGHTLPYTFGGGTKLEIK

One test concerns DMPK. Put plainly: DMPK knockdown by anti-TfR1 antibody-oligonucleotide conjugates in NHP myotubes. It is filed as cell-based, non-human primate. The note with it: conjugate with control DMPK-ASO, 72 hours, concentration not stated (0.5, 5, 50 nM tested). How it is done: (§1) The purified complexes were then tested for cellular internalization and inhibition of the target gene, DMPK. Non-human primate (NHP) or DM1 (donated by DM1 patients) cells were grown in 96-well plates and differentiated into myotubes for 7 days. Cells were then treated with escalating concentrations (0.5 nM, 5 nM, 50 nM) of each complex for 72 hours. Cells were harvested, RNA was isolated, and reverse transcription was performed to generate cDNA. qPCR was performed using TaqMan kits specific for Ppib (control) and DMPK on the QuantStudio 7. The relative amounts of remaining DMPK transcript in treated vs non-treated cells was were calculated and the results are shown in Table 14 and FIG. 20.
as §1, with “of” for “of the target gene,”, “in” for “in Table 14 and”, “23.” for “20.”
Regarding B1, the “% knockdown of DMPK in NHP cells using Antibody-DMPK ASO conjugate” value (“% knockdown of DMPK in NHP cells” below) came to 47%.
Take B2: the “% knockdown of DMPK in NHP cells” value is 26%.
Same read-out and setting: next, B3: −20%; B4: 2%.
In the case of B5, the “% knockdown of DMPK in NHP cells” value is given as 39%.
The same measure, in the same setting: the value for B6 was 7%; that for B7 was 77%.

The target in another test is hTfR1 (Homo sapiens, UniProt P02786). The test can be described thus: Binding kinetics of anti-TfR1 antibodies on Carterra LSA, hTfR1. The note with it: Carterra LSA at 25 C. The method, then: Selected anti-TfR1 antibodies were tested for their binding affinity to human TfR1 for measurement of Ka (association rate constant), Kd (dissociation rate constant), and KD (affinity). […] The binding experiment was performed on Carterra LSA at 25 C. An anti-mouse IgG and anti-human IgG antibody “lawn” was prepared on a HC30M chip by amine coupling. 59 IgGs (58 mouse mAbs and 1 human mAb) were captured on the chip. Dilution series of hTfR1, cyTfR1, and hTfR2 were injected to the chip for binding (starting from 1000 nM, 1:3 dilution, 8 concentrations).
hTfR1, sequence (P02786 whole entry): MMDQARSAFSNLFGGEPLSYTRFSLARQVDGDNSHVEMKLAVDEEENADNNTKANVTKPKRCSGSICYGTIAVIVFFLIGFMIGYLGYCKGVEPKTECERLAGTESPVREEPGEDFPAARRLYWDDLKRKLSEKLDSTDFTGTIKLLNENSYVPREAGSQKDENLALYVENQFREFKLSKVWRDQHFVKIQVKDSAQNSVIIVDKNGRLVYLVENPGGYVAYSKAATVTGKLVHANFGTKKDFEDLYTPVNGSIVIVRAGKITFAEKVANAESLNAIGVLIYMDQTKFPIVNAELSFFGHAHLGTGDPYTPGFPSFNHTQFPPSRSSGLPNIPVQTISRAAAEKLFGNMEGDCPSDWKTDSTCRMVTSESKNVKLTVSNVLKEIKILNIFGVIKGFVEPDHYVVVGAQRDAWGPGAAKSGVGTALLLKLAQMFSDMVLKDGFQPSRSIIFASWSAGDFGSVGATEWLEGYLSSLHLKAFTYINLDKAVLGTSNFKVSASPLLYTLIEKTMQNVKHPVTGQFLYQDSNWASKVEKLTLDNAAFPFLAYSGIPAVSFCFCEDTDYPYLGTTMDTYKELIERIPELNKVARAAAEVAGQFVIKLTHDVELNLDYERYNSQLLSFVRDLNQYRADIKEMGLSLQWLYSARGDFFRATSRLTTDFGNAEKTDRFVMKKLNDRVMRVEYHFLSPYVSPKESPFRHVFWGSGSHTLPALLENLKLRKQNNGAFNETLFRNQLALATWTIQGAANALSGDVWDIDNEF
Binding data were referenced by subtracting the responses from a buffer analyte injection and globally fitting to a 1:1 Langmuir binding model for estimate of Ka (association rate constant), Kd (dissociation rate constant), and KD (affinity) using the Carterra™ Kinetics software. 5-6 concentrations were used for curve fitting.
Consider B1, for which the “dissociation rate constant (koff)” value is 21.7 µM.
As for B2, the “dissociation rate constant (koff)” value stood at 91.2 µM.
The same measure, in the same setting: next, B5: 456 µM; B7: 127 µM.

The test system of the next test is DMPK. The test can be described thus: DMPK knockdown by anti-TfR1 antibody-oligonucleotide conjugates in DM1 patient myotubes. It is filed as cell-based, human. The settings on record: DM1 patient myotubes, conjugate with control DMPK-ASO, 72 hours; concentration not stated (0.5, 5, 50 nM tested). The method, then: as §1
as §1, with “of” for “of the target gene,”, “in” for “in Table 14 and”, “23.” for “20.”
In the case of B1, the “% knockdown of DMPK in cells from human DM1 patients using Antibody-DMPK ASO conjugate” value is given as −4%.
The same measure, in the same setting: the value for B2 was 41%; that for B3 was 35%.
Consider B4, for which the “% knockdown of DMPK in cells from human DM1 patients using Antibody-DMPK ASO conjugate” value stood at 16%.
Same read-out and setting: next, B5: 24%; B6: 57%.
The same measure, in the same setting: next, B7: 52%.

The test is the same for the next values; noted with them: conjugates with control DMPK-ASO, in either cyno cells or human DM1 patient cells.
As to B7, the “activity in delivering a payload (DMPK ASO) and achieving DMPK knockdown compared to the control antibody 15G11” value is given as “superior activity”.

The record behind these values is patent US20230144436A1, “MUSCLE TARGETING COMPLEXES AND USES THEREOF FOR TREATING MYOTONIC DYSTROPHY” (Dyne Therapeutics, Inc., priority 2020, published 2023).
